Measurements reported in US20260241035A1, “FUNCTIONAL NUCLEIC ACID MOLECULE AND METHOD” (THE UNIVERSITY COURT OF THE UNIVERSITY OF EDINBURGH, priority 2022, published 2026).

What follows are molecules tested on GSC7 cells (assay: Nano-Glo Dual-Luciferase Reporter (Nanoglo DLR) assay of enhancer activity, fold change to mCMV). Settings: expression fold change of the individual enhancer compared to mCMV.
Type: cell-based, human
From the text: We chose an arrayed library format, with 160 bp enhancer fragments individually cloned into separate plasmids and arrayed in 96 well plates. These 160 bp were synthesized as a single pool of oligos, then randomly cloned into the plasmid and isolated. 20 bp×2 were needed for PCR amplification of the pool and so a library of 200 bp fragments was synthesized (Twist Biosciences). To meet our oligo synthesis strategy, ChIP-seq peaks expressed by GSCs were merged into a single oligo. This oligonucleotide pool was PCR-amplified (using limited cycles to reduce bias and ‘jackpot’ products meaning products which are easier to amplify will overtake the oligonucleotide pool) and cloned into the expression vector by an efficient Golden Gate reaction. 4579 individual plasmids were then randomly picked, isolated and plated as an arrayed plasmid DNA library on 96 well plates (×48). The bacterial colony picking and production of plasmid minipreps were supported by the Edinburgh Genome Foundry (S. Rosser). This library was then screened using the optimised Nanoglo DLR assay (Nano-Glo Dual-Luciferase Reporter Assay, Promega) in 384 well format. Each plate was transiently transfected together with PGK-FFLuc in a 1:10 ratio into GSC7 cells. 2 days later a Nanoglo DLR assay was performed and assayed on a plate reader.
Cells were seeded in 384 well plates using a multidrop and transfected the following day using the CyBio Felix. Two days later the experiment was terminated with a Nanoglo DLR assay and all hits with a fold change to mCMV greater than 10 were Sanger sequenced and mapped back to the genome.
Cells were seeded at the required density. The following day the transfection was carried out. For this the Plus reagent and Lipofectamine LTX (Life Technologies, 15338030) were each diluted in half the volume of Opti-MEM I Reduced-Serum Medium (further referred to as Optimem) (Life Technologies, 31985062). Following this step, the Plus reagent/Optimem premix was added to all DNA samples followed by the Lipofectamine LTX/Optimem premix. The transfection mix was incubated for 5 min at room temperature and then carefully dropped on the cells. Generally, no media change was carried out. Cells were analysed two days following transfection.
This assay consists of two steps. The transfection was carried out using a normalisation plasmid PGK-Firefly-Luciferase (Promega, E5011) that was transfected in a 1/10 ratio with the plasmid of interest. First, the Firefly Luciferase activity is measured which allows to normalise to transfection efficiency. In a second step, the activity of Nanoluc is determined which is the readout of the plasmid of interest. Cells were washed 3× with PBS and 20 μl was left in the 96 well plate after the final wash (25 μl in 384 well). Oneglo buffer was added and the plate was shaken for 5 min at 480 rpm to allow cell lysis. 20 μl cell lysate in 96 well format or 25 μl cell lysate in 384 well format was then transferred into the corresponding opaque white plate and luminescence was measured at for 0.1 s per well using the Ensight Multimode Plate Reader. For the following Nanoluc reaction in a 96 well format 2 μl cell lysate was transferred into an opaque white plate containing 40 μl PBS, and 20 μl Stopglo buffer, supplemented with substrate, was added to each well. In a 384 well format 20 μl Stopglo buffer containing substrate were added on top of the undiluted cell lysate. The plate was shaken again for 5 min at 480 rpm to quench the firefly luciferase reaction and ensure good mixing. Nanoluc activity was measured for 0.1 s per well, again using Ensight Multimode Plate Reader.
Data obtained by the Nanoluc reaction was normalised to Firefly reaction to account for well-to-well variability of transfection efficiency. Normalised data were used to calculate the fold change to the empty vector control mCMV.

| Molecule | Fold change (Median) |
| --- | --- |
| CSE005: clustered SOX dimer motif enhancer, SEQ ID NO: 41 (nucleic acid) DNA: TCCCTTGGAAAGTGTTCAAATCAAAGCTACCTTTATACCACACTCCTTTGTGTCCTGATGTCCTGAATAGTGAGATTATCGGGTACACCCACCTGTTCCTGCACTTCCTTCCTGCTCAATTTAAATAAACAATGAGCTGTTTTTCTTCTTGACAAAGAGCCAGTCTATACAACAGCAGCAGGAAGATTACTTTCTATCTGTATGCAAACAGATACATAGCTGAGTTCTCTCCAATCCCCGGGAAAAGACCCTTTTAACTAAATGACTTATGCTTCT | 11.5 fold |
| CSE078: clustered SOX dimer motif enhancer, SEQ ID NO: 43 (nucleic acid) DNA: TGTCGGGCAGCCAAGACCTGTCAGGGACAAGAGTGCTGTGAGCTGCGGGCTGGTGGGTGGAAGGAGAGAGGCCCCTGGTGCTCCTGCCAAGCCAAGGAATGTGTCATTGCTGTGCTGTGCCTTCAGCCTGGCATTTGGGAACAAAGAGGTACTTTGTATGGATAACATAGACCAGGTTGTTGGGGAAGGGATCAGAGATGGGGGTAGACCCATTTTTAAAAATCTGCTCATGTCCCAGGCAAGTTTTTTTGGCAGGGATTGCAGTTGGGCTATTACAAAGAGCTGCTGTACACGAGGGGTATGTCTACTACTGTCAAATTACAGCAGCAATTATCTTGGGCACTG | 10 fold |
| ID4328: enhancer fragment, SEQ ID NO: 7 (nucleic acid) DNA: TACAATCTATTCTCCATAGTCATCAGAGTTTCTTTAAAGGCACGGTTCAGACAATGGCACCCTCTGTTCCAAACCCTCCAGGGCTTCCTATTTCACTTAGCATAAAAACCAAAGTCCTCACAATGACCGACAAGTCTTCACACAATGTGCCCCTTCATTG | 100.7 fold |
| CSE194: clustered SOX dimer motif enhancer, SEQ ID NO: 37 (nucleic acid) DNA: ATCTCATATATGTGTATATGTATTTATGATTTACATATATACAGACGTATCACACACTCCGAATAGAATACAGATTTCCTTCAATGACAGCAACAACTCAATGACCCGCCCACTAGCATGGCTAAAATACTAAACCACTAGATAGCTTTATGTGAACTTGAGCTTGATTGTTTCTTAGCTCTGCTTCAGAACCTCATGATCATGTGCATGCAATTTCTACAGAAGCGGAAACGTAGATGCTGTGGGTCAGTGAGCATTCCTTTCCAGGGTGCTTCTGAGATGAAGCCCCACGATTAACACAGGGCCCTTAATGATGGGCGGGGGACTAAGCATTCCAAGATTGGCCTGGATTCCTGCCAGAAGGGAGAGAAAGGGGTCTTTGTATGTGGACATCTGAAGGGCGGGCATAAACATGTTAGTTGATACTTAACACCCAAAACCAGTGCCAAAACCGTTAGCTCCCCTCAATAGCCTACTCTGGTTTCAACTGTCCGCGACAATGGAGCAGCCACCTCAATATACAAAACTTGCTCTTTAAACATCCTCAGAGGAATTCCCAAAATAGCAGCTGTTAGAAGCAAACAGACTCTAATTCATTGACATATGCAGACCTTTTAATGTTTTTCTGGTGACGTTTACATTTTTTTTTGTACCTACGCCATCTATGCATTTTTAATAATTACCTTGTAGATTACGTATGCAATCCCTCCAGGCACTTGAAGAAGGAGCCCCGGGATTCATCATCAGATGAAATTGTTAGTTTTTACGGCAAGAGGCCCAGCTAATTTATGCGGGGAATTTTTCAGACGTTTTTCCTCTGGGCTCCCTTCCCTGCTGTCCTCGCGCCTTTCTTCCTCAGTACATTAAGAGATTCTGATGTGCCTGCAGCA | 14.54 fold |
| CSE208: clustered SOX dimer motif enhancer, SEQ ID NO: 38 (nucleic acid) DNA: AGATAAAGCCAGAAATAAAAGGGAAAGAAACAGTTATATGATTTTGGTGGGAATTTGCAGAAATACAGGCTGAAGCTGAAGTCTTCCATCAGGTGAGGTTTTTTCCATTGATCTCATCTCTCGGGCTCAGCTCTTTTATCTCCAGCGCATTTTGGATGTGGCTTCTCTTTCCACCTGCTGGGCCTTTAGATAGAGTACTTCCTTTTGTTTCAAGGTAGCATTTAACTGAGTCTGGAAAAACCATCATTAAGGGAAAATAAAGCTGAAAGATGAATTGAAAACTATGTAAAAGGGCCCTTTCAGGCTGCCGGAGAGATTGCCTTTCCAGCCTAATGAGCCTGTGCTGCCTCTGATTCAGATGGTGCAAGGACAGGAGAAAAGAATGGAGTTTTGTGCACTGCGATTTTCCAAAGCACATAATGCTTAGTCATTTGGGGTGTTAGGAAAGAGAGAAAGTCGGAGCGGAGTGTGTGGTGAAGTGAGAGAAAGAAAGAAGGCTGAATTTTCGTTAAGCTGCTCAAATGCCTGCTTTAACAAAAGTCTGCCAGGGCTAGAGGTGATTAGCCATCAGTGCTGCTGCTGTTTTTGCTGTCG | 45.5 fold |
| CSE222: clustered SOX dimer motif enhancer, SEQ ID NO: 39 (nucleic acid) DNA: CTCTTTGGGTCTAGGTATCATTTTGGGATCACATCATGATAACTCTATGTGTGTGTGCTGGGAGGGCAAAGTTGCAAAGCAATTACTCAGCAATGCTGAAGAAAGAAGCAATTACTGGAACACATTTTAGCCCCGCTTGTCAGAGTGACTTTCACTGGGGCACAAGGGAAGCATTCACTTAGGCAGTATCCCTTTCAGAGGCTTAATTTAGTTTTTTCTTCCCTTTAATTGTGTGATTCCAGTATTTTAGCTACAATCCCTAGGCTGTAGGAACCTTTAAACACTTCTTTTTATAAAAGAAATGCATGGGCTTTTGAAGAATAAACAGGGGGCTGCATAATTTATAGGAAAATGGCACCATGGACTTTTCCTTCACAAAGAACATTGGGGTTACATTGGAACAAGCCAAATATGTTTTTAATGAATAGTCAGTAATCAGCAGCAGCTACAGTAAGTGCTTGAAATTTTTCTTTTATGTGCTATGAGTCCACAAACTAAGCATCTGATTCTGATTGCAGCCATGA | 145.9 fold |
| ID0109: enhancer fragment, SEQ ID NO: 6 (nucleic acid) DNA: GAAATTGGATCCTGAGGAGAATGTCACCACCTCTTTGACAATAACTAGCTTTCAGAGCTGAACACAGTGAATCTGGATACTGTGTATATGTTTAAATGAGTTAGGAAATGACATCACATTATTTATTTCTTCTTTTGTGACTTAGTAAATTGACTTGGCC | 116.4 fold |
| CSE034: clustered SOX dimer motif enhancer, SEQ ID NO: 42 (nucleic acid) DNA: GCCATAATTTGAACCTCGGAGTGCCCCACTGACAGCCAACGACACCAGAGGGTCCCTTTGTATGTAAGGATTGCATGACTCCAGTTGAATGACCCAAGCCGGGGACAAACAGGAAAGAACCCAGCAGCTCTGGAGGCCACTTGAGCTGACTGTCAAATGCTCTGGGCTGATTAACGACTACGAACTTCAGGGAAGACAAGTGTGCTTTGATGCCACAGAGCTATCCTGGGCCTGTACAGGCCCGTTTCTGCTCTGAATGAGGAAGCTGTACTTTGCAGGCACCCGGCAGAACAAGAATAGGGCCTAAGATACCTGAATGAAGGGCACAGAGGAAGTACAAAATACAGTCATTGTTGGAGCTAGAAGCTGGTGCCAGGCTACGAGGGGGCCCAGTGGCCAAGCATTATG | 14.3 fold |
| CSE012: clustered SOX dimer motif enhancer, SEQ ID NO: 40 (nucleic acid) DNA: GTAGAGAATAGATTCTGTAGGGCTTTTAACCTCCACTGTTATTCCAAGGATGGGGCTCAGCTTCCTTCTTTTCCTTTCTGACTCTGTCTATATCAAGGGTCCCGTGGGTTGTTCCTTTCCATTGTGGTCTCACTGCCCAGCTTTAAGGCACCATCCTGGCACAGTGATAGGTTTACCTTTGTCTAAAAGTGTCCATTTGCATCTCTGTGGCCTTCTTGCCTGGGTGACACCCACTTGATTAGGCATTTGCCCAGTGTGAGATCAGAGTCCCTCATTTACATTTCCCCACAATAGTGAATGGCTTACAGGCTGTTCAAATACAGTTTCTAAACAGTGAATAATTCAGCCAGAAAGCCAGCCTTTTAAGGTTTGGATTTGGGGCATTTCTGAG | 10.3 fold |
